Measurements: patent US20070134249A1 (GENITOPE, published 2007)

Assays:
Test in all cases: ELISA
Parameters in all cases: key to grade: 0 = <0.5 OD, 1 = 0.5-1.0 OD, 4 = 1-4 OD
102 = biological target: T1, 102
T1 construct: H1-18 L1-44; also called PIN102

534 = biological target: T2, 534
T2 construct: H3-11 L1-47; also called PIN534

762 = biological target: T3, 762
T3 construct: H3-7 L3-10; also called PIN762

746 = biological target: T4, 746
T4 construct: H4-39 L2-8; also called PIN746

1060 = biological target: T5, 1060
T5 construct: H4-39 L2-23; also called PIN1060

[1] = biological target: T6, PIN574 fully human Id protein (HV4-39 / LV1-40) (human)
T6 construct: Recombinant patient-derived idiotype immunoglobulin used as antigen, fully human form; also called Immunogen (for 20H5); not shown: human immunoglobulin heavy chain constant region, isotype G3 (HCG3); human immunoglobulin lambda light chain constant region (LC)
T6 sequence (VH, as listed by the source, chain 1 of 2): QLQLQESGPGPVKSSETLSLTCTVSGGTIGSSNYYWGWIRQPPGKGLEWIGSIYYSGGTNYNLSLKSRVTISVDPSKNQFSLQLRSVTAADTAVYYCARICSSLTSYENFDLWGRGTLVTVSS
T6 sequence (VL, as listed by the source, chain 2 of 2): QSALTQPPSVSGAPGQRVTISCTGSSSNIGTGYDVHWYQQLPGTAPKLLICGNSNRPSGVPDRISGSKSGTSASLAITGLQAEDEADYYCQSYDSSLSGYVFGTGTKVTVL

grade 102: 4
grade 534: 4
grade 762: 4
grade 746: 1
grade 1060: 4
grade [1]: 4
B1: mAb clone 4H11 (antibody, V domains shown)
VH: EVKLVESGGGLVKPGGSLKLSCAASGFAFSNYDMSWVRQTPEKRLEWVATIRSDDSYTYYPDSVKGRFTISRDNARNTLYLQMSSLRSEDTAFYYCARREGNYAMDYWGQGTSVTVSS
VL: DIQMTQSPASLSVSVGETVTITCRASENIYSYLAWYQQKKGKSPQLLVYAATNLGDGVPTRFSGSGSGTQYSLKINSLQSEDFGSYYCQHFWGNPLTFGAGTKLELKR
notes: Mouse hybridoma mAb
